# Assay results: the supplement of paper PMC9732359
# ± gives the uncertainty stated by the source.
# Test: protein stability index of a GFP-peptide fusion (yeast GPS) (PSI 1-4); higher = more stable; sorted into four equal gates, so the index is relative within each strain
# Conditions: pdr5∆
# How it was run: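 Tiled 17-residue peptides from yeast proteins were fused downstream of GFP on a plasmid that also expresses Cherry, and the pooled library was carried in yeast. Mid-log cultures grown in leucine-free medium were sorted into four equal gates by GFP/Cherry fluorescence ratio. Plasmids from each gate were PCR-amplified and Illumina-sequenced, and reads were assigned to strains by barcodes. Each peptide's protein stability index is the sum, over gates, of the gate's read frequency multiplied by its gate number.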
row,Sequence,protein stability index
1,LAANYLNIKPLLDAGCK [SKP1],2.19 ± 0.081
2,LADDDEERFSELFKGYL [RPL5],2.05 ± 0.14

# Same assay, conditions: san1∆
row,Sequence,protein stability index
1,KLKEMQKVLNAHRQRAM [SMC4],1.9 ± 0.12
2,KLKQGQKLFVQVSNFAP [GAL11],3.01 ± 0.051
3,KLLDDNPTEFDWPTYVD [SRB8],3.01 ± 0.042
4,KLLFQELLSMNIAPRLR [RET1],1.35 ± 0.089
5,KLLGIGDIESLFEQLQT [SRP54],2.2 ± 0.13
6,KLNKKLQHLRSRCHLVT [SRP68],3.3 ± 0.039
7,KLRARLVEYGFDPSRIK [SMC2],2.33 ± 0.08
8,KLREPVARFLHFNGIRR [ITC1],2.5 ± 0.083
9,KLRRECSNPTCGAGVFL [RPS31],2.11 ± 0.07
10,KLSCIQLNCIDTQFTKL [SRB8],2.31 ± 0.091
11,KLSEIILNINNSTSKNT [SWI1],2.74 ± 0.1
12,KLSIAEERDRRRAQQGL [RPS4A],2.49 ± 0.095
13,KLTRELEKKFQDRHVIF [RPS7A],3.09 ± 0.086
14,KLYKKIAKFERSEEEVT [YIL149C/MLP2],3.17 ± 0.064
15,KLYTFLARRTDAPFNKV [RPL18A],1.97 ± 0.079
16,KMIEKIEKMSTIVQLCK [YIL149C/MLP2],1.98 ± 0.17
17,KMSDGFNGADIRNCATE [RPT4],3.35 ± 0.041
18,KMYDYEEKEESNLAATK [RPN11],2.87 ± 0.056
19,KMYSDDTLKDISTSFCF [BRN1],3.42 ± 0.039
20,KNAVVRSKFGGDFLDFQ [ARP7],3.31 ± 0.094
21,KNFDMLNSMEKDRISHE [PCI8],2.35 ± 0.08
22,KNGLYQEAFKIYQHLAS [SRP72],2.33 ± 0.23
23,KNPKFSNAFYSVLRDTL [SMC4],2.13 ± 0.093
24,KNRRRIHGELKTYKEGI [SMC1],3.17 ± 0.095
25,KNTSSMDFLNSMENTPK [GAL11],2.33 ± 0.12
26,KNVGNKSPEQCILRFLQ [SWI3],2.31 ± 0.083

row,Sequence,protein stability index
1,KNVLANSIWGSSLRKNA [ITC1],1.82 ± 0.13
2,KNWQNVGSLVVKSSMGP [RPL1A],2.7 ± 0.064
3,KPAFSFGATTNDDKKTE [YJL041W/NSP1],3.01 ± 0.058
4,KPFLKKTQEYYTQYTND [CDC53],3.07 ± 0.044
5,KPGRMPFNFTVTLFQMA [CDC53],2.17 ± 0.08
6,KPMAFSNTTTHVPEKKS [MTR3],2.32 ± 0.082
7,KPPTQKTDTKVSFRTHN [SRP21],2.57 ± 0.07
8,KPQEIKDILVKTGITKK [PRE9],2.56 ± 0.22
9,KPQRTNTLRMKHGTYDK [RPB2],2.84 ± 0.062
10,KPSSPPDVKSLVQLSTM [SIR4],3.12 ± 0.088
11,KPYKQVKQIAPAELEGL [FAS2],2.47 ± 0.083
12,KQEIMMSDLFTFDWFIK [ISW2],2.46 ± 0.07
13,KQEQEEKIKSKKINRRN [YCG1],2.75 ± 0.29
14,KQERLKENEESLTPTQS [PRP28],3.22 ± 0.12
15,KQINHQGEEEELIALNL [RPB4],3.2 ± 0.076
16,KQLQLAMHNSKAASSTR [POP1],1.54 ± 0.11
17,KQNSSSDINQNDDSSSM [YDL088C/ASM4],2.58 ± 0.088
18,KQRTKKEDKSEAIDGNG [SNF2],3.17 ± 0.073
19,KQTADWLAEKFQKETNM [PRP28],3.43 ± 0.091
20,KQTKLRKEKEKKPGKIA [SMB1],2.51 ± 0.29
21,KRADISKRRITEELSIT [SMC1],1.72 ± 0.12
22,KRDAKAAGSYYVEAQHK [RPL7A],3.22 ± 0.042
23,KRINKFLDSVHKQGSSY [POP7],2.65 ± 0.045
24,KRKLDIGKDTFVTRKSR [PRP8],2.91 ± 0.068
25,KRLIAHDWLNALDGDLI [YCG1],2.6 ± 0.17
26,KRLLYTRRFVNVTLVNG [RPS30A],1.62 ± 0.099

row,Sequence,protein stability index
1,KRRKTHIHKHVKDEAFD [RET1],2.92 ± 0.095
2,KRRVTNLEFNYTKPYPN [SMC2],2.75 ± 0.16
3,KRVHTLLTLIVREYEQP [ISW2],3.06 ± 0.15
4,KRVKSYMDKAKQYDNRI [LRP1],2.92 ± 0.04
5,KRYANHTQDIIGGMRVD [RET1],3.19 ± 0.049
6,KSAENIIKMTIPYAAKL [RET1],2.89 ± 0.15
7,KSGKFCSHCGCVYVPNF [SNM1],1.7 ± 0.11
8,KSIENPTQTKGNDAKPA [YLR335W/NUP2],3.23 ± 0.046
9,KSIINSQRPGARILARS [ITC1],2.45 ± 0.22
10,KSKFNKSNRSYSIALSN [GAL11],3.1 ± 0.12
11,KSKILRKVVFPFQLDVA [UBP6],2.65 ± 0.11
12,KSKLFEWKSEFVVPTFG [SNM1],2.6 ± 0.08
13,KSKSSLDGKFSLFHTAV [RPN2],2.86 ± 0.067
14,KSLDEQLLLLSDERAKL [LRP1],2.84 ± 0.046
15,KSLESQRYVKSVKSVKF [RPC34],2.16 ± 0.098
16,KSLVQYIELLPNADDIR [DIS3],2.47 ± 0.069
17,KSNGLAPEIPEDLYYLI [RPS13],2.45 ± 0.11
18,KSNGSSDDDNIGQSEEL [ISW2],3.31 ± 0.08
19,KSNRSYSIALSNVAAIF [GAL11],1.4 ± 0.27
20,KSNTIPVTSIPSTNKKL [GAL11],2.9 ± 0.044
21,KSPPQFFYNISSIHWNN [SIN4],2.17 ± 0.065
22,KSRGSDLQYLGEFSGKN [RRP6],3.45 ± 0.082
23,KSRPDRPKPVSPPCYII [SNF5],2.98 ± 0.069
24,KSSLSLRDHALSLTAFT [ITC1],1.64 ± 0.064
25,KTAKEVAGAIRAGIIIA [RPS2],2.69 ± 0.24
26,KTCAEVIGGNSLFHIVV [SMC3],2.96 ± 0.071

row,Sequence,protein stability index
1,KTDEVIILGTNLYDGAE [BRR2],3.06 ± 0.042
2,KTDFAKIINKPNELSQI [RPC82],2.84 ± 0.091
3,KTFNKIQSQVFESLYNS [BRR2],1.25 ± 0.12
4,KTGTKPAAVFTETLKHD [RPL4A],1.74 ± 0.15
5,KTKAMSLSIEENIPVAL [POP1],3.22 ± 0.1
6,KTMIKTIEKDKMKIQET [SMC2],1.64 ± 0.12
7,KTPLLKQYLSASFSLKN [RPL6A],2.25 ± 0.059
8,KTSSQTSLSSKDLSNYR [YMR153W/NUP53],2.58 ± 0.089
9,KTVDSSIQPIESNIKMT [SSN2],2.86 ± 0.083
10,KVAHTSYKRIYGEYPPT [PRE8],3.01 ± 0.085
11,KVCECVCMHCGKLLLDE [RPO21],2.88 ± 0.087
12,KVDINADSAVNRQTLMF [PRP28],3.08 ± 0.055
13,KVKHDSQPFIKFLNFRP [SSN2],2.49 ± 0.079
14,KVLGVKDMSPILGELKR [LRP1],2.88 ± 0.065
15,KVLRKFRVQSQSNYGIY [NUT1],1.34 ± 0.11
16,KVRLNASEREELALIEE [PRP8],2.98 ± 0.12
17,KVVYIQRRSWRQYVGQL [DIS3],3.02 ± 0.12
18,KVYAQLLESYKTLSLKS [RPN7],2 ± 0.11
19,KWDDLNEQLTLLSKKHG [RPN5],2.58 ± 0.063
20,KYACLAIRKNGQIDFWY [SIN4],2.08 ± 0.071
21,KYFTELSHYIRQCFQDN [MED1],1.92 ± 0.089
22,KYISAELYAQLRENGLV [SNU114],3.21 ± 0.092
23,KYNAFIASEVLIKQVPR [RPL1A],1.39 ± 0.15
24,KYNVNISALTQTEIKDI [PRP8],2.18 ± 0.067
25,LAANYLNIKPLLDAGCK [SKP1],1.57 ± 0.12
